In US20050239704 one finds binding signal data, which are given here for one substance.

The target in the data set is T1, SarA (Staphylococcus aureus) (UniProt Q2G2U9).
T1 sequence: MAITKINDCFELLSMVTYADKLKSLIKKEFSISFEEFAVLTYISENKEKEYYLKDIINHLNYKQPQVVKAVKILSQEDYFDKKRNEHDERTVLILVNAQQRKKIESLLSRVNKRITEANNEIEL
In words: EMSA. To be noted: 2-5 ng radiolabeled P1 fragment; scale: fold more protein than SarR for complete shift. In general terms: In EMSA bound probe runs differently from free probe, usually more slowly.

Turning to sarA P1 promoter fragment (nt 531-859), the binding signal stood at 10.
